Assay results published in the supplement of paper PMC6379048.

What was measured:
Experiment in all cases: Kd (EC50 corrected by depletion factor)
[1] = biological target: T1, UPF1 (UniProt Q92900)
T1 sequence: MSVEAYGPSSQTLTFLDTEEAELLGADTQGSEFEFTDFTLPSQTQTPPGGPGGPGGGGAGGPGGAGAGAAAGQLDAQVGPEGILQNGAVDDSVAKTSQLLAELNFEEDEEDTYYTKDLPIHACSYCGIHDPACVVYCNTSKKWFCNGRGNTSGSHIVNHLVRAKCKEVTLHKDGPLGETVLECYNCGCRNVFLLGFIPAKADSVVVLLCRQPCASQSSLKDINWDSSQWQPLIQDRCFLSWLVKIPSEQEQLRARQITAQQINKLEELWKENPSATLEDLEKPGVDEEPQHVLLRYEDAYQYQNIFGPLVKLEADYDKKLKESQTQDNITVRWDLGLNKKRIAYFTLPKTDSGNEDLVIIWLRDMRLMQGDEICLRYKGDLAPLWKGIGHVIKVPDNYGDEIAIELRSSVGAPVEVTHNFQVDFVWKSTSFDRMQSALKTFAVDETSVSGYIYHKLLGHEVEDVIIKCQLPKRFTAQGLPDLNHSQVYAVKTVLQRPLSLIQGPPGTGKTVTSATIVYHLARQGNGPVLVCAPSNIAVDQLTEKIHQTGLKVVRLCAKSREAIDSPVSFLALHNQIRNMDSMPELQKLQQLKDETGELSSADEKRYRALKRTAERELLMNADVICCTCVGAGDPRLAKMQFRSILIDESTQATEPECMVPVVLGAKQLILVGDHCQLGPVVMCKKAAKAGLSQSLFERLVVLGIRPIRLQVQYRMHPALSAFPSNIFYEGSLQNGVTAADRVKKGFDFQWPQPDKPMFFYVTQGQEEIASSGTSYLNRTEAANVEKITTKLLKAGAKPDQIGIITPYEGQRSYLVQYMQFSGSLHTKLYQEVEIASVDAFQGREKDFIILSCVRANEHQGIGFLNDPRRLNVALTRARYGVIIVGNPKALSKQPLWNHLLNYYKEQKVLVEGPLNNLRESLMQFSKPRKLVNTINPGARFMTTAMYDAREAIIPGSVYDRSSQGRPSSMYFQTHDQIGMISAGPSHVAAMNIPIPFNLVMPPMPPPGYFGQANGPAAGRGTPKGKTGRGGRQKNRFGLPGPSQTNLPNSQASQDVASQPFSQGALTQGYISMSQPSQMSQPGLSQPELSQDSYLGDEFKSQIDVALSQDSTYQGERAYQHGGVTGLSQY
How it was run: (§1)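 HEK293-FT lysate (2.5 mg protein/well) was pre-incubated 1 h at 4°C with free RNA oligos (0 nM to 30 μM), then 30 min at 4°C with the same 5′-amino-C6 oligos coupled to NHS-Sepharose beads. Bound proteins were quantified by label-free LC-MS/MS in three biological replicates and two independent experiments, and normalised to the water control. EC50 came from a four-parameter log-logistic fit; Kd is EC50 times a protein-dependent depletion factor.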

[2] = biological target: T2, GPALPP1 (UniProt Q8IXQ4)
T2 sequence: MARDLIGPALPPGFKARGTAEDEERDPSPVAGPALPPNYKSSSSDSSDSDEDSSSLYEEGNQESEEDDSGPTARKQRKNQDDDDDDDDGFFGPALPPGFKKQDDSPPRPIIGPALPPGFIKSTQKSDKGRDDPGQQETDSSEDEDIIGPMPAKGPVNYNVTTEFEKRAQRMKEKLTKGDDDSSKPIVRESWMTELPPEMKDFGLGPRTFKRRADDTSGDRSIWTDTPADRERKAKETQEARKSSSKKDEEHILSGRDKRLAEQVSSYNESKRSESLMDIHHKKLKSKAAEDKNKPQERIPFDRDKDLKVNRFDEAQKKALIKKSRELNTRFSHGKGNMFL
How it was run: as §1

[3] = biological target: MRPS27 (UniProt Q92552)
How it was run: as §1

[4] = biological target: T3, ZFP36L1 (UniProt Q07352)
T3 sequence: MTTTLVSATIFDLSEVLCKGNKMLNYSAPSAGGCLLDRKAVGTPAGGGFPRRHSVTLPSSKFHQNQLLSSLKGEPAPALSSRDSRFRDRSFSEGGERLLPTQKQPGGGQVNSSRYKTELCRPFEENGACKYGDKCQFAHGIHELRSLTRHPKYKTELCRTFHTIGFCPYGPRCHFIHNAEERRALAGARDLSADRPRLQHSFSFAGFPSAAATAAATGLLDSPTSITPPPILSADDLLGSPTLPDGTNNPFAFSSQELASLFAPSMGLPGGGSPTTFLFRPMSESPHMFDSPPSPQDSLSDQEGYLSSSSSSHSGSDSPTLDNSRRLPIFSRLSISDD
How it was run: as §1

[5] = biological target: CNBP (UniProt P62633)
How it was run: as §1

CNBP, sequence (P62633 whole entry): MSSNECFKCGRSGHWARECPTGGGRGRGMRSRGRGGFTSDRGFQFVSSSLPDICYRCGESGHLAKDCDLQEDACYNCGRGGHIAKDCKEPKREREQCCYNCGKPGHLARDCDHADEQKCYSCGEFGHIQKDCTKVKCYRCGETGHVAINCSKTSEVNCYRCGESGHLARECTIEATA

Row | Sequence | Kd [1] [nM] | Kd [2] [nM] | Kd [3] [nM] | Kd [4] [nM] | Kd [5] [nM]
1 | AAUAAA | 2640 | 33 |  |  | 
2 | UAUUUAU |  |  | 49.8 | 24.4 | 1270
